Patent publication US20110158908A1 (SAPPORO MEDICAL UNIVERSITY, published 2011)

T1: CSABP (cyclosporin A-binding protein), endogenous in MH14 cells (human, UniProt Q9H6S0 1-1430)
T1 construct: also called CSABP protein; CSABP molecule
T1 sequence: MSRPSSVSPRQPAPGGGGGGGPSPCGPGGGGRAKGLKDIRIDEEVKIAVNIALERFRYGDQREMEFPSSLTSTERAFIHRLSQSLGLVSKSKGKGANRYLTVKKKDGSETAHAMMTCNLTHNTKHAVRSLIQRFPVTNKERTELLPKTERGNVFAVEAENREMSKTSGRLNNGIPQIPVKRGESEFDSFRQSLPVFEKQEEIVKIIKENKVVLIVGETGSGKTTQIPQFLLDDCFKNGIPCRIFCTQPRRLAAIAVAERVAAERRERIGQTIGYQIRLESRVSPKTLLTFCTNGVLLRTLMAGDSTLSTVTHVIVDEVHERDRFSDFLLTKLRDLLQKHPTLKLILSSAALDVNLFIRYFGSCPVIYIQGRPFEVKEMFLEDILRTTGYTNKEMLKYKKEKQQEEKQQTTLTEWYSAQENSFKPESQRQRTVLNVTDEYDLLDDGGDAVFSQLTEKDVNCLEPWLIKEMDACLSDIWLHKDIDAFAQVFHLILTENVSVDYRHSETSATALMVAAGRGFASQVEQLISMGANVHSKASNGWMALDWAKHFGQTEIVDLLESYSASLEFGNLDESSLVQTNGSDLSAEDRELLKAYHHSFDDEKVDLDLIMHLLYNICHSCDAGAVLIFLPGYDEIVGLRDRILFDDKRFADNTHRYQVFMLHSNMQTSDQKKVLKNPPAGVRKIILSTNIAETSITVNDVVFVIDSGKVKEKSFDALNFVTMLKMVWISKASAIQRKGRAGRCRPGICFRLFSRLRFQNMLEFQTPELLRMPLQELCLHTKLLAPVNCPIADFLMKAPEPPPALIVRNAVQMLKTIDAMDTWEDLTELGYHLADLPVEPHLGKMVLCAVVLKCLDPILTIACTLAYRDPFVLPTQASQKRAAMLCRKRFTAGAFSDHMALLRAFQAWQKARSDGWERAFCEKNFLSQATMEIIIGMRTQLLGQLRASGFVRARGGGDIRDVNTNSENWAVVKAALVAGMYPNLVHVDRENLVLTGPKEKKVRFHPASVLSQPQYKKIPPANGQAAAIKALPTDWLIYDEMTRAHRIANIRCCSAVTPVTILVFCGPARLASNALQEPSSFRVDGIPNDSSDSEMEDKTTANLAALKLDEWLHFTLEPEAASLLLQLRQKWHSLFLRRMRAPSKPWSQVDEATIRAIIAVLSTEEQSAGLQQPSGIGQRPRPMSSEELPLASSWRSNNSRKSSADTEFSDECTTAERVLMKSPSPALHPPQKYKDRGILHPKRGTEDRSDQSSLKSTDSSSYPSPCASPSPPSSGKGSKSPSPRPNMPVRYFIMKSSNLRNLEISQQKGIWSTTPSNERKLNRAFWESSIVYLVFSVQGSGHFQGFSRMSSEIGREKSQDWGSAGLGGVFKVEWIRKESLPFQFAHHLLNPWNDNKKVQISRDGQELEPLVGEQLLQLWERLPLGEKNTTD

B1: Protein G Sepharose (other, UniProt P19909 303-497, looked up)
chain: TYKLILNGKTLKGETTTEAVDAATAEKVFKQYANDNGVDGEWTYDDATKTFTVTEKPEVIDASELTPAVTTYKLVINGKTLKGETTTEAVDAATAEKVFKQYANDNGVDGEWTYDDATKTFTVTEKPEVIDASELTPAVTTYKLVINGKTLKGETTTKAVDAETAEKAFKQYANDNGVDGVWTYDDATKTFTVTE

Columns and labels:
[1] = molecular target: T1, CSABP (cyclosporin A-binding protein), …; assay: Protein G Sepharose control precipitation from MH14 cell extract, western blot with anti-CSABP antibody
Protein G Sepharose = molecular target: B1; assay: Protein G Sepharose control precipitation from MH14 cell extract, western blot with anti-CyPB antibody

Binder	binding result [1]	binding result (Protein G Sepharose)
B1	no binding	–
cyclophilin B (CyPB) (enzyme) not shown	–	no binding
